A protein production outcome set (Wang et al. 2014)

Assay: label from the status in PepcDB records

## MAVEQPTAHAGGQSPAHAGEQSRIHNIGYRNYDGPRLGRAYARRSLYSQSLRGAYGLGRSVKSKVLPMLLFVVMCVPALIMVAVAVATKAKDLPVDYTRYAIIMQAVIGLYVASQAPQSVSRDLRFKTVPLYFSRPIETADYVRAKYAALASAMFILTAAPLLVLYVGALLAKLDFTDQTKGFAQGLVSVALLSLLFAGIGLVISAVTPRRGFGIAAVIAVLTISYGAVSTVQAIADAQNSTSAVPWLGLFSPVTLIDGMQTAFLGASSSFPGEAGPSSAQGVVFLIVVLGLIAGCYGLLMRRYRKVGL
  protein production: failed

## MRQATMDFSSSSVFDQHKGDSSEEVDLTMVYQAASNGDVNSLTAVIREDPSILECCDSEGCTPLMHAVSGRQVDTVKLLLKMGANINTQDAYGRTSLCLATYLGWLEGCVSLLRNGAKHNIPDKNGRLPLHAATAEPDVRLLIVLLQQSSLSEINHQDTEGMTPLHWAAFHNRPQHTQMLLKKGADPTLVDKDFKTALHWAVQYGRSRVACQDVLGHAQGPGRASQETTISVSCQHALLGISNIYNKAGRITEASSQQLTSDFRTPLHWAAAAGKAECVQSLLDLGMDSNLRDINESTPLAYALYCGHTACVRLLSREGRAEPARPLPSQNSQPQKKEGRFSVLNQIFCKNKKEEQKAHQKEQSRARPKEEDTSEVNDIIATFDSVVDTNCQDQPGDQVDMVVFKKRTSENSKYLLPEKKSLARKGLPPIRTQSLPPITLGSNFLTASHGATSHAGLNSGLQHTAQRSQKSRSEQDLLNNRTGCQVSLDNPWKGDTRQAFSCKAWTVSSSDKLLDRMFTGQPGHQELSGPPHLPHLPNPSPGQGLQHLSPNRPKVRDFPFTRNSLAPLPDQKFLSGEPLRTNRVLPAIPSQRGHDPPAEESEWSSSPTHDEN
  protein production: failed

## MIISSLTNPNFKVGLPKVIAEVCDYLNTLDLNALENGRHDINDQIYMNVMEPETAEPSSKKAELHHEYLDVQVLIRGTENIEVGATYPNLSKYEDYNEADDYQLCADIDDKFTVTMKPKMFAVFYPYEPHKPCCVVNGKTEKIKKLVVKVPVKLI
  protein production: not failed

## GEIIEGCRLPVLRRNQDNEDEWPLAEILSVKDISGRKLFYVHYIDFNRRLDEWVTHERLDLKKIQFPKKEAKTP
  protein production: not failed

## MSSERVLSNARVVSAERVFVGSVLLRDGLIAAVDEGRSHLAGAEDLGGDYLLPGLVELHTDNLEKHMTPRPGVDWPSASAVLAHDAQIVSAGITTVFDALSIGDVNPKGKRMQQLPKMLEAIGEAAASGDARADHRLHLRCEVSHPQTLEVFRELVEHPLVQLVSVMDHAPGQRQFARLEKYREYYQGKYHLSDAEMDAFIVEQVANSERYSDAARAAIVDVCQGRGLSVASHDDATLAHVRESAGYGMAIAEFPTTVEAARASHEHGLQVLMGAPNVVRGGSHSGNVAAAQLAGIGVLDILSSDYYPASLLHAALLLAGEHSEYDAIRYDLPRAVAMVSRTPALAAGLTDRGEIRVGLRADLLQARALGNNQPVVRQVWRGGQRVF
  protein production: failed

## MKEKVVIITGGSSGMGKGMATRFAKEGARVVITGRTKEKLEEAKLEIEQFPGQILTVQMDVRNTDDIQKMIEQIDEKFGRIDILINNAAGNFICPAEDLSVNGWNSVINIVLNGTFYCSQAIGKYWIEKGIKGNIINMVATYAWDAGPGVIHSAAAKAGVLAMTKTLAVEWGRKYGIRVNAIAPGPIERTGGADKLWISEEMAKRTIQSVPLGRLGTPEEIAGLAYYLCSDEAAYINGTCMTMDGGQHLHQYPF
  protein production: not failed

## MMKNKKVEANLSMVVSKTFSGLNMNALKYLLPVWVSPLSGVTLRCVFAAIAFWIIGMFVKPEISTRKEKIFLFLLGALGIYGFMFLYLMGLSKTTPVSSSIFTSLQPIWVFVIAVVFFKEKISAMKIAGISLGLGGAILCILAQKSDDLASDALTGNMLCLLSSIAYAVYLVASNRILKSVGMFTVLKYTFAGAAFSSIVVSAVTGFHAPVFSGPLHWFPLSVLLFVLIFPTVVSYLLVPIGLKYLKTTVVAIYGYLILIVATIVSLLVGQDRFSWSQTIAIGMICVSVYLVEVAETKEKPVSNSDKPSSLPPHGS
  protein production: failed

## MTIPYKEQRLPIEKVFRDPVHNYIHVQHQVILDLINSAEVQRLRRIKQLGTSSFTFHGAEHSRFSHSLGVYEITRRICEIFQRNYSVERLGENGWNDDERLITLCAALLHDVGHGPYSHTFEHIFDTNHEAITVQIITSPETEVYQILNRVSADFPEKVASVITKQYPNPQVVQMISSQIDADRMDYLLRDAYFTGTEYGTFDLTRILRVIRPYKGGIAFAMNGMHAVEDYIVSRYQMYVQVYFHPVSRGMEVILDHLLHRAKELFENPEFDYDLQASLLVPFFKGDFTLQEYLKLDDGVLSTYFTQWMDVPDSILGDLAKRFLMRKPLKSATFTNEKESAATIAYLRELIEKVGFNPKYYTAINSSYDLPYDFYRPNKDRHRTQIELMQKDGSLVELATVSPLVAALAGQSQGDERFYFPKEMLDQGNKKHYDLFDETYREFSSYIHNGALVLKK
  protein production: not failed

## MSLKRILIVDDDTAILDSTKQILEFEGYEVEIAATAGEGLAKIENEFFNLALFDIKLPDMEGTELLEKAHKLRPGMKKIMVTGYASLENSVFSLNAGADAYIMKPVNPRDLLEKIKEKLDEQEKEGHHHHHH
  protein production: not failed

## MAASAHGSVWGPLRLGIPGLCCRRPPLGLYARMRRLPGPEVSGRSVAAASGPGAWGTDHYCLELLRKRDYEGYLCSLLLPAESRSSVFALRAFNVELARVKDSVSEKTIGLMRMQFWKKTVEDIYCDNPPHQPVAIELWKAVKRHNLTKRWLMKIVDEREKNLDDKAYRNIKELENYAENTQSSLLYLTLEILGIKDLHADHAASHIGKAQGIVTCLRATPYHGSRRKVFLPMDICMLHGVSQEDFLRRNQDKNVRDVIYDIASQAHLHLKHARSFHKTVPVKAFPAFLQTVSLEDFLKKIQRVDFDIFHPSLQQKNTLLPLYLYIQSWRKTY
  protein production: failed

## MMSKVVSKMKSFLGFDEFEDEDEVMEEEEVMEEEESFAPVLSSKKNGKVVNIHTANTAKLMITKPLVYDDATEICTALKNRKIVVINTTSLELRTAQRLIDFVGGACYALCGELQEVEKGVFIVSPSNVEVSNELKSELSNKGMFNWASKLEHHHHHH
  protein production: not failed

## MSSSTSQDFVSRPVIKKVFAKLQKEGDGAVVRRGISRSEQKLLDPFLMLDEFSVSPPAGFPDHPHRGITHQDFKGHKGTIYAGDVQWMTAGRGIIHSEMPEEEVNKEPNYQELSHSDIPKAEQNGVEVKVIAGESMGIQSPVYTRTPTMFLDFTLQPGAQIHQNVPESWNAFAYILESGEGGGVFSSSNSSPIPAHSVVVFGPGNDGVSVWNKSSSKQLRFVLIAGEPIGEPVVQYGPFVMNTQAEIDMTIEDYHYGKNGFEMAKYWRSQ
  protein production: failed

## MIEQELTYQDLRIPSSEIYEAMGYKDSIPDQMVIDETNTLLKRVIPLLRPRFAFFFMEGTLDIEKETLSVQSIHPPTVNPIQDTIPTRSPEQNTFSTQSKSTVFSVGKTIARQLRGSEAFVFFAATAGTEFEVFQHTLQQEEDMVKIYIADSLGSIIAEKTADCMEVALAEYIREKNWKHTNRYSPGYCGWHVSEQQKLFPLFPIAAPCGIRLTDSSLMVPIKSVSGVIGTGTNVRKLEYTCGLCTYENCYRKRKHR
  protein production: not failed

## MLRVVEVCWRESHMKVLAINSSPRMDKGNTALILNPFLEGMKEAGAEVELFYTKKLKISPCTGEFNCWLKTPGKCYQNDDMNILYPRIDAADVIVFATPVYVDGVTGQMKNFIDRMLPRVEPFVELRDGHCRHPVRGGPKALKFVLVSNCGFWEMDNFDSLLVFMKAFCKNASTEFAGALLRPHGEALSSMLEMGAPIDDVFEAAREVGRQLVKEGKMSQETLDIVSRELLPKEMYIQIANQTFRQCLESLDRLEHHHHHH
  protein production: failed

## MRKNDIADISPRDPMLALVLLTRLPLPALPEAAFARQAAAVWAFPLAGLAVGALAWATGALALAAGLAPVAVAGLMLVVLVMTTGGMHEDGLADTADGLWGGFTPERRLEIMKDSHIGTYGVLALILSQGLRLAALSALVAGGALGAAVAAAVWSRALMPVLMAALPNARGTGLSQSVGRPTPQAVTLGLGLAAVLALLLAGWAVLIPALLAVLSVLGLAALARAKIGGQTGDILGAAQQLAEITCLLALSAAL
  protein production: failed

## MVTVVVPAHNEDVVIAQTAKAILDMKYPRDKLEIILFADNCEDNTYQEMQSIKALPQYADRDLTLINRSGTGGKAGVLNDALKIAKGDYICVYDADAMPEKNALYFLVQKVMEDPERHVAAFGRNKTRNANQNFLTRCINQEIVVTQRIQHVGMWHLGKIGRIPGTNFIINTEFVKSIGGWRNGALTEDTDISFKIMQSGKLIALAYNSEAFQQEPETLKSYYLQRKRWAKGNYEVVIANFKHLFGRGNWRVKWEVFYYTCTFFWFNAAIVLSDILFFSNLIALIIGLFKPGVQVPFAFDANNIYMAQLLLFNWFLMILLYLLQISISQATQYGQATVKQIWIALLAYFTYTQLFIIVSISSVASVMMDKILHREGTKWVKTKRFAG
  protein production: failed

## MDFHIRKATNSDAEAIQHVATTSWHHTYQDLIPSDVQDDFLKRFYNVETLHNRISATPFAVLEQADKVIGFANFIELEKGKSELAAFYLLPEVTQRGLGTELLEVGMTLFHVPLPMFVNVEKGNETAIHFYKAKGFVQVEEFTEDFYGYPLETIRFNLNHHAFEEE
  protein production: not failed

## MSQPNFLLFITDQHRADHLGAYGNSQIRTPALDALARRGWLAERFYVASPICMPNRATLMTGRMPSAHGARHNGIPLSQRATTFVERLRQAGYGTALVGKSHLQNMTGNGPVWPRPQDPPAEGEAWAPEPGDYDQEWGPLWREDPAHDLATPFYGFSQVDLAVDHGDRVWGHYWRWLQREHPEVAAQAGPDHALPAPGFELVRAGQAWRTRVPESCSTTAYLGRRTMQALDGYAQRGQPFFIQCSFPDPHHPFTPPGKYWDMYRPEDVELPASFHASAAAGRQPPPHVQWMYAQRDSGRAVKHTPAMFACTEREAREAIALNYGSISHIDHTVGEVLAHLQRLGLADNTVVIFTSDHGDYLGDHQLLWKGPVHYQSVIRTPFIWADPAGAQGARSDALCSTTDIAPTILARAGLLPYNGIQGADLGALMRGEQAAPREAVLIEEEGQRVMFGFDKRVRMRTLQTGRYRMSVYHGVSWGELYDLREDPLELRNLWDEPGSAALRQDLLFQLAQNLIGHGETSPHPTALA
  protein production: failed

## MADSRPRLVTGSPEGYPGHVDGRLRDARLNNPKGLTVDDRGNIYVADTVNNAIRKISEAGVTTIAGGKMVRGGGHVDGPSEDAKFSNDFDVVYLGSSCSLLVIDRGNQAIREIQLHFDDCADQYGSGFPLGIAVLVAAVFFGYMLALLQRRLSSIVSYHTDQEVFEAVPDQDPIKPVRPPLILTGDEQEKQEESFLGTLQIFISNAWVFSVELFSGMFPGLRKKQTVGLNFNHQETKHSAFSTTSWPIQESFVIHNKDEPPPVESRNATPGKIYPFMSKDATEKMQQLRQSRALYRSLDAEFLQEQQQEKHQQYHHRHHSTIPYTLYEQSSEKTNEIVFGPGQEQDQMNTHQNIHHRAHQFVSYPYGYYS
  protein production: failed

## MNTLRTAMLLAAMTALFMGVGFLIGGSGGMMIALLIAAGTNLFSYWNADKMVLSMNRAVEVDEKNAPEYYAIVQALAKQAGLPMPRTYLIDNPQPNAFATGRNPQNAAVAASTGLLQRLTHEEVAAVMAHELAHVQHRDTLTMTIVATFAGAISMLGNFAFFLGGNRDNNPFGFVGVLAAMIVAPFAAMIVQMAVSRTREYEADRRGAEICGHPLWLASALDKIARGAERIPNPDAERNPAMAHLFIINPLHGERMDNLFSTHPSTDNRIAALQEMAQQMAGGTQAAPRPTPRQAGEQQPSGPWGQAPQAEQPAEPERPKANPWGRNPTGPKGRWS
  protein production: failed

## REITLDDAALLQRFFVENPEYFHIVHGAAPQPDEARDEIDDALPAGWSYTHKWKIGYFDSEGRLLAFVSIVTDLLAQGVWHIGLFMLATPCHGSSLARQLHAELEAWAAGEGARWLRLSVVQDNARAQGFWNACGYAQVRTRDGIELGRLQHQVRIMIKPL
  protein production: failed
